Source: article PMC9095892 (The Journal of Biological Chemistry, 2022)

B1: Streptomyces griseus StrM (TDP-sugar 3'',5''-epimerase, RmlC ortholog) (enzyme, UniProt P29783 1-200, looked up)
chain: MRPLSVQGAWLSETRAFADDRGEFQELYSARSLRGALGYDPGVAQVNRSVSRRGVLRGVHFAQLPPSQAKYVTCLSGAVLDVVVDIRTGSPTYRAWEAVRLDDPHRSLYVEAGLGHSFMALTDDAVVVYLTSQGYAAGREHGVHPLDPDLGIAWPDGIEPVLSEKDRQAPGIAEMERRGLLPDYEECLAFRRSLCERGTG
notes: also called SgStrM

Legend:
[1] = tested on: Cc1cn([C@H]2C[C@H](O)[C@@H](COP(=O)(O)OP(=O)(O)O[C@H]3O[C@H](C)C(=O)[C@H](O)[C@H]3O)O2)c(=O)[nH]c1=O; assay: purified protein; settings: pH 7.5
[2] = molecular target: the molecule itself; assay: crystal structure

| Molecule | Km [1] [µM] | kcat/Km [1] [M⁻¹ s⁻¹] | binding result [2] |
| --- | --- | --- | --- |
| EvaD (AoEvaD) (Amycolatopsis orientalis) | 632 ± 98 | 630 ± 70 |  |
| RmlC (EcRmlC; E. coli RfbC) (Escherichia coli K-12) | 830 ± 40 | 6600 ± 200 |  |
| StrM (SgStrM) (Streptomyces griseus) | 600 ± 40 | 9100 ± 400 |  |
| B1 |  |  | binds |
